We go through ten molecules from patent publication US20200024322A1 (Eli Lilly, published 2020).

To fix the notation:
T1: human GIP receptor (human, UniProt P48546 22-466)
T1 construct: whole, on cells; Used as crude membranes of stably transfected CHO cells; also called hGIPR
T1 sequence (looked up): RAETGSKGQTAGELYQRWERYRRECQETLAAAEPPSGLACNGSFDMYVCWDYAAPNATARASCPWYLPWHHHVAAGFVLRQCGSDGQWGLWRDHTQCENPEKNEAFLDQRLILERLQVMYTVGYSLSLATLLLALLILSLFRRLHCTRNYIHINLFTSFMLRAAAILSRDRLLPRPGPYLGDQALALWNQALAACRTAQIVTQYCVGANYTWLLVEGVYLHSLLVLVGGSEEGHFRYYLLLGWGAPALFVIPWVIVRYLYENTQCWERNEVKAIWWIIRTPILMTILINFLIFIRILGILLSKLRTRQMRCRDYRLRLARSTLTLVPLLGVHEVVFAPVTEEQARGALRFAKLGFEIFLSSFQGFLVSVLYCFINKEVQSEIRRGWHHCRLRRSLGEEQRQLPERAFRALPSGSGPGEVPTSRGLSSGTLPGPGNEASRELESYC

B1: Example 49 (peptide)
peptide: Y[Aib]EGTFTSDYSILLDKIAQ[Aib]AFIEYLIEGGPSSGAPPPSK([AEEA-AEEA-γGlu-C20 diacid])-NH2
modifications: N-terminus assumed
SMILES: CC[C@H](C)[C@H](NC(=O)[C@H](CCCCN)NC(=O)[C@H](CC(=O)O)NC(=O)[C@H](CC(C)C)NC(=O)[C@H](CC(C)C)NC(=O)[C@@H](NC(=O)[C@H](CO)NC(=O)[C@H](Cc1ccc(O)cc1)NC(=O)[C@H](CC(=O)O)NC(=O)[C@H](CO)NC(=O)[C@@H](NC(=O)[C@H](Cc1ccccc1)NC(=O)[C@@H](NC(=O)CNC(=O)[C@H](CCC(=O)O)NC(=O)C(C)(C)NC(=O)[C@@H](N)Cc1ccc(O)cc1)[C@@H](C)O)[C@@H](C)O)[C@@H](C)CC)C(=O)N[C@@H](C)C(=O)N[C@@H](CCC(N)=O)C(=O)NC(C)(C)C(=O)N[C@@H](C)C(=O)N[C@@H](Cc1ccccc1)C(=O)N[C@H](C(=O)N[C@@H](CCC(=O)O)C(=O)N[C@@H](Cc1ccc(O)cc1)C(=O)N[C@@H](CC(C)C)C(=O)N[C@H](C(=O)N[C@@H](CCC(=O)O)C(=O)NCC(=O)NCC(=O)N1CCC[C@H]1C(=O)N[C@@H](CO)C(=O)N[C@@H](CO)C(=O)NCC(=O)N[C@@H](C)C(=O)N1CCC[C@H]1C(=O)N1CCC[C@H]1C(=O)N1CCC[C@H]1C(=O)N[C@@H](CO)C(=O)N[C@@H](CCCCNC(=O)COCCOCCNC(=O)COCCOCCNC(=O)CC[C@H](NC(=O)CCCCCCCCCCCCCCCCCCC(=O)O)C(=O)O)C(N)=O)[C@@H](C)CC)[C@@H](C)CC
B2: Example 50 (peptide)
peptide: Y[Aib]EGTFTSDYSILLDKK([AEEA-AEEA-γGlu-C20 diacid])AQ[Aib]AFIEYLIEGGPSSG-NH2
modifications: N-terminus assumed
SMILES: CC[C@H](C)[C@H](NC(=O)[C@H](CC(C)C)NC(=O)[C@H](Cc1ccc(O)cc1)NC(=O)[C@H](CCC(=O)O)NC(=O)[C@@H](NC(=O)[C@H](Cc1ccccc1)NC(=O)[C@H](C)NC(=O)C(C)(C)NC(=O)[C@H](CCC(N)=O)NC(=O)[C@H](C)NC(=O)[C@H](CCCCNC(=O)COCCOCCNC(=O)COCCOCCNC(=O)CC[C@H](NC(=O)CCCCCCCCCCCCCCCCCCC(=O)O)C(=O)O)NC(=O)[C@H](CCCCN)NC(=O)[C@H](CC(=O)O)NC(=O)[C@H](CC(C)C)NC(=O)[C@H](CC(C)C)NC(=O)[C@@H](NC(=O)[C@H](CO)NC(=O)[C@H](Cc1ccc(O)cc1)NC(=O)[C@H](CC(=O)O)NC(=O)[C@H](CO)NC(=O)[C@@H](NC(=O)[C@H](Cc1ccccc1)NC(=O)[C@@H](NC(=O)CNC(=O)[C@H](CCC(=O)O)NC(=O)C(C)(C)NC(=O)[C@@H](N)Cc1ccc(O)cc1)[C@@H](C)O)[C@@H](C)O)[C@@H](C)CC)[C@@H](C)CC)C(=O)N[C@@H](CCC(=O)O)C(=O)NCC(=O)NCC(=O)N1CCC[C@H]1C(=O)N[C@@H](CO)C(=O)N[C@@H](CO)C(=O)NCC(N)=O
B3: Example 2 (peptide)
peptide: YXEGTXTSDYSIXLDXKAQXEFIXYLIEGGPSSGAPPPS
modifications: Aib2; αMeF(2F)6; αMeL13; Orn16; K17((2-[2-(2-Amino-ethoxy)-ethoxy]-acetyl)2-(γ-Glu)-CO-(CH2)16-CO2H); Aib20; D-Glu24; C-terminal NH2
B4: Example 59 (peptide)
peptide: B3 peptide with X6F, X16E, E21A, X24E
modifications: Aib2; αMeL13; K17((2-[2-(2-Amino-ethoxy)-ethoxy]-acetyl)2-(γ-Glu)-CO-(CH2)18-CO2H); Aib20; C-terminal NH2
B5: Example 53 (peptide)
peptide: HXEGTFTSDYSIXLDKKAQXAFIEYLIEGGPSSGAPPPS
modifications: Aib2; αMeL13; K17((2-[2-(2-Amino-ethoxy)-ethoxy]-acetyl)2-(γ-Glu)-CO-(CH2)18-CO2H); Aib20; C-terminal NH2
B6: Example 20 (peptide)
peptide: B5 peptide with H1Y
modifications: Aib2; αMeL13; K17((2-[2-(2-Amino-ethoxy)-ethoxy]-acetyl)2-(γ-Glu)-CO-(CH2)18-CO2H); Aib20; C-terminal NH2
B7: Example 61 (peptide)
peptide: B5 peptide with H1Y, K16S, I27L
modifications: Aib2; αMeL13; K17((2-[2-(2-Amino-ethoxy)-ethoxy]-acetyl)2-(γ-Glu)-CO-(CH2)18-CO2H); Aib20; C-terminal NH2
B8: Example 66 (peptide)
peptide: B5 peptide with H1Y, K16E, I27L
modifications: Aib2; αMeL13; K17((2-[2-(2-Amino-ethoxy)-ethoxy]-acetyl)2-(γ-Glu)-CO-(CH2)18-CO2H); Aib20; C-terminal NH2
B9: Example 21 (peptide)
peptide: Y[Aib]EGTFTSDYSI[αMeL]LDEK([AEEA-AEEA-γGlu-C20 diacid])AQ[αMeK]AFIEYLLEGGPSSGAPPPS-NH2
modifications: N-terminus assumed
SMILES: CC[C@H](C)[C@H](NC(=O)[C@H](Cc1ccccc1)NC(=O)[C@H](C)NC(=O)[C@](C)(CCCCN)NC(=O)[C@H](CCC(N)=O)NC(=O)[C@H](C)NC(=O)[C@H](CCCCNC(=O)COCCOCCNC(=O)COCCOCCNC(=O)CC[C@H](NC(=O)CCCCCCCCCCCCCCCCCCC(=O)O)C(=O)O)NC(=O)[C@H](CCC(=O)O)NC(=O)[C@H](CC(=O)O)NC(=O)[C@H](CC(C)C)NC(=O)[C@](C)(CC(C)C)NC(=O)[C@@H](NC(=O)[C@H](CO)NC(=O)[C@H](Cc1ccc(O)cc1)NC(=O)[C@H](CC(=O)O)NC(=O)[C@H](CO)NC(=O)[C@@H](NC(=O)[C@H](Cc1ccccc1)NC(=O)[C@@H](NC(=O)CNC(=O)[C@H](CCC(=O)O)NC(=O)C(C)(C)NC(=O)[C@@H](N)Cc1ccc(O)cc1)[C@@H](C)O)[C@@H](C)O)[C@@H](C)CC)C(=O)N[C@@H](CCC(=O)O)C(=O)N[C@@H](Cc1ccc(O)cc1)C(=O)N[C@@H](CC(C)C)C(=O)N[C@@H](CC(C)C)C(=O)N[C@@H](CCC(=O)O)C(=O)NCC(=O)NCC(=O)N1CCC[C@H]1C(=O)N[C@@H](CO)C(=O)N[C@@H](CO)C(=O)NCC(=O)N[C@@H](C)C(=O)N1CCC[C@H]1C(=O)N1CCC[C@H]1C(=O)N1CCC[C@H]1C(=O)N[C@@H](CO)C(N)=O
B10: Example 51 (peptide)
peptide: Y[Aib]EGTFTSDYSILLDKK([AEEA-AEEA-γGlu-C20 diacid])AQ[Aib]AFIEYLIEGG-NH2
modifications: N-terminus assumed
SMILES: CC[C@H](C)[C@H](NC(=O)[C@H](CC(C)C)NC(=O)[C@H](Cc1ccc(O)cc1)NC(=O)[C@H](CCC(=O)O)NC(=O)[C@@H](NC(=O)[C@H](Cc1ccccc1)NC(=O)[C@H](C)NC(=O)C(C)(C)NC(=O)[C@H](CCC(N)=O)NC(=O)[C@H](C)NC(=O)[C@H](CCCCNC(=O)COCCOCCNC(=O)COCCOCCNC(=O)CC[C@H](NC(=O)CCCCCCCCCCCCCCCCCCC(=O)O)C(=O)O)NC(=O)[C@H](CCCCN)NC(=O)[C@H](CC(=O)O)NC(=O)[C@H](CC(C)C)NC(=O)[C@H](CC(C)C)NC(=O)[C@@H](NC(=O)[C@H](CO)NC(=O)[C@H](Cc1ccc(O)cc1)NC(=O)[C@H](CC(=O)O)NC(=O)[C@H](CO)NC(=O)[C@@H](NC(=O)[C@H](Cc1ccccc1)NC(=O)[C@@H](NC(=O)CNC(=O)[C@H](CCC(=O)O)NC(=O)C(C)(C)NC(=O)[C@@H](N)Cc1ccc(O)cc1)[C@@H](C)O)[C@@H](C)O)[C@@H](C)CC)[C@@H](C)CC)C(=O)N[C@@H](CCC(=O)O)C(=O)NCC(=O)NCC(N)=O

Substitutions are numbered along the chain they refer to. Numbered stars: 1 amine (or outer) side, 2 acyl side, 3 side chain; on linkers, the order of the positions; unused ones are H or OH. Square brackets hold non-standard residues; d marks the D form. Side chains are listed from the residue outwards. Ends that are not written are not given here. * marks the point of attachment. C20 diacid = O=C(O)CCCCCCCCCCCCCCCCCCC(=O)*; γGlu = O=C(O)[C@H](CCC(=O)[*:2])N[*:1]; αMeL = CC(C)C[C@](C)(N)C(=O)O; αMeK = C[C@](N)(CCCCN)C(=O)O; AEEA = NCCOCCOCC(=O)O; Aib = CC(C)(N)C(=O)O

The target in the first assay is T1, human GIP receptor. Put plainly: SPA, [125I]-GIP displacement, hGIPR membranes.
Usually Ki stands for a measure of affinity in units of concentration, obtained from inhibition or displacement. A higher Ki goes with weaker binding. B1 yielded a Ki of 0.087 nM.
The molecule B2 gave a Ki of 0.0568 nM.
On the same count and under the same terms, the figure for B3 is 0.06 nM.
As for B4, the Ki stood at 0.136 nM. Against the preceding molecule, the Ki is about 2.3-fold higher.
The same measure, in the same setting: the figure for B5 is 0.188 nM.
Regarding B6, the affinity corresponds to a Ki of 0.0849 nM.
On the same count and under the same terms, the same measure for B7: 0.102 nM; for B8: 0.106 nM.
The molecule B9 yielded a Ki of 0.529 nM.
The same measure, in the same setting: the same measure for B10: 0.062 nM.

In another assay the target is T2, human glucagon receptor (human, UniProt P47871 26-477).
T2 construct: whole, on cells; Used as crude membranes of stably transfected HEK293 cells; also called hGcgR; hGLcgR
T2 sequence (P47871 26-477): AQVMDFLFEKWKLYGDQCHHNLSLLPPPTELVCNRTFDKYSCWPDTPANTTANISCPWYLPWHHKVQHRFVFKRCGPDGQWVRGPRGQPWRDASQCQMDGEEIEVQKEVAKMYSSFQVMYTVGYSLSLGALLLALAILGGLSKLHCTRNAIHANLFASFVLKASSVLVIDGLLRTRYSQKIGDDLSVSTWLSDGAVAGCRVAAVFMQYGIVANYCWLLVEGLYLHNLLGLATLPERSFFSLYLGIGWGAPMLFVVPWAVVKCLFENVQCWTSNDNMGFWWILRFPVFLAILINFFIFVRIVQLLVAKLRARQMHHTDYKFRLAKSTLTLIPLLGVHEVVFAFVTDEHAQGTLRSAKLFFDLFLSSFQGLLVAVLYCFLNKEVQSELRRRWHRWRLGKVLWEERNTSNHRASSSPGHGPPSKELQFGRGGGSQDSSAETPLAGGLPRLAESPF
Put plainly: SPA, [125I]-Gcg displacement, hGcgR membranes.
For the molecule B1, the Ki worked out at 236 nM. This lies in the sub-micromolar range.
Turning to B2, the affinity corresponds to a Ki of 220 nM. This Ki and that of the molecule before are within 1.5-fold of each other.
Still for that read-out and setting: the same measure for B3: 361 nM; for B4: 292 nM; for B5: 216 nM.
For the molecule B6, the Ki came out at 228 nM.
Take B7: the Ki was found to be 110 nM.
B8 yielded a Ki of 93.7 nM. This Ki and that of the molecule before are within 1.5-fold of each other.
As to B9, the Ki worked out at 149 nM.
On to B10, for which the Ki stood at 195 nM. This Ki and that of the molecule before are within 1.5-fold of each other.

In the next assay the target is T3, human GLP-1 receptor (human, UniProt P43220 24-463).
T3 construct: whole, on cells; Used as crude membranes of stably transfected HEK293 cells; also called hGLP1R; hGLP-1R
Put plainly: SPA, [125I]-GLP-1 displacement, hGLP-1R membranes.
B1 had a Ki of 12.3 nM.
For the molecule B2, the Ki was found to be 4.71 nM.
Molecule B3 returned an inhibition constant Ki of 2.35 nM.
B4 showed a Ki of 8.2 nM.
Molecule B5 showed a Ki of 1.23 nM.
Turning to B6, the affinity corresponds to a Ki of 3.3 nM.
In turn, B7 gave a Ki of 11.1 nM.
For the molecule B8, the Ki was 7.53 nM.
Same read-out and setting: the figure for B9 is 14.5 nM; for B10 it is 5.62 nM.
